Data reported in ChEMBL document CHEMBL1143427, “Interactions of ceftobiprole with beta-lactamases from molecular classes A to D” (Antimicrob Agents Chemother, 2007).

Assays:
[1] = tested on: Nc1nc(/C(=N/O)C(=O)N[C@@H]2C(=O)N3C(C(=O)O)=C(/C=C4\CCN([C@@H]5CCNC5)C4=O)CS[C@H]23)ns1; experiment: (§1) Ratio of Kcat to Km of Morganella morganii AmpC assessed as drug hydrolysis by spectrophotometry
[2] = tested on: CO/N=C(\C(=O)N[C@@H]1C(=O)N2C(C(=O)[O-])=C(C[N+]3(C)CCCC3)CS[C@H]12)c1csc(N)n1; experiment: as §1
[3] = tested on: O=C(Cc1cccs1)N[C@@H]1C(=O)N2C(C(=O)O)=C(/C=C/c3ccc([N+](=O)[O-])cc3[N+](=O)[O-])CS[C@H]12; experiment: as §1
[4] = tested on: O=C(Cc1cccs1)N[C@@H]1C(=O)N2C(C(=O)[O-])=C(C[n+]3ccccc3)CS[C@H]12; experiment: as §1
[5] = tested on: CC1(C)S[C@@H]2[C@H](NC(=O)Cc3ccccc3)C(=O)N2[C@H]1C(=O)O; experiment: as §1
[6] = tested on: CC(C)(O/N=C(\C(=O)N[C@@H]1C(=O)N2C(C(=O)[O-])=C(C[n+]3ccccc3)CS[C@H]12)c1csc(N)n1)C(=O)O; experiment: as §1
[7] = tested on: Nc1nc(/C(=N/O)C(=O)N[C@@H]2C(=O)N3C(C(=O)O)=C(/C=C4\CCN([C@@H]5CCNC5)C4=O)CS[C@H]23)ns1; experiment: (§2) Activity of Morganella morganii AmpC assessed as drug hydrolysis by spectrophotometry
[8] = tested on: CO/N=C(\C(=O)N[C@@H]1C(=O)N2C(C(=O)[O-])=C(C[N+]3(C)CCCC3)CS[C@H]12)c1csc(N)n1; experiment: as §2
[9] = tested on: O=C(Cc1cccs1)N[C@@H]1C(=O)N2C(C(=O)O)=C(/C=C/c3ccc([N+](=O)[O-])cc3[N+](=O)[O-])CS[C@H]12; experiment: as §2
[10] = tested on: O=C(Cc1cccs1)N[C@@H]1C(=O)N2C(C(=O)[O-])=C(C[n+]3ccccc3)CS[C@H]12; experiment: as §2
[11] = tested on: CC1(C)S[C@@H]2[C@H](NC(=O)Cc3ccccc3)C(=O)N2[C@H]1C(=O)O; experiment: as §2
[12] = tested on: CC(C)(O/N=C(\C(=O)N[C@@H]1C(=O)N2C(C(=O)[O-])=C(C[n+]3ccccc3)CS[C@H]12)c1csc(N)n1)C(=O)O; experiment: as §2
[13] = tested on: O=C(Cc1cccs1)N[C@@H]1C(=O)N2C(C(=O)[O-])=C(C[n+]3ccccc3)CS[C@H]12; experiment: (§3) Ratio of Kcat to Km of Pseudomonas aeruginosa VIM2 assessed as drug hydrolysis by spectrophotometry
[14] = tested on: CC(C)(O/N=C(\C(=O)N[C@@H]1C(=O)N2C(C(=O)[O-])=C(C[n+]3ccccc3)CS[C@H]12)c1csc(N)n1)C(=O)O; experiment: as §3
[15] = tested on: Nc1nc(/C(=N/O)C(=O)N[C@@H]2C(=O)N3C(C(=O)O)=C(/C=C4\CCN([C@@H]5CCNC5)C4=O)CS[C@H]23)ns1; experiment: (§4) Activity of Pseudomonas aeruginosa VIM2 assessed as drug hydrolysis by spectrophotometry
[16] = tested on: O=C(Cc1cccs1)N[C@@H]1C(=O)N2C(C(=O)[O-])=C(C[n+]3ccccc3)CS[C@H]12; experiment: as §4
[17] = tested on: CC(C)(O/N=C(\C(=O)N[C@@H]1C(=O)N2C(C(=O)[O-])=C(C[n+]3ccccc3)CS[C@H]12)c1csc(N)n1)C(=O)O; experiment: as §4

**Q.** Which results are given for “Beta-lactamase (Morganella morganii) (from UniProt P94958)”?
**A.** kcat/Km [1]: < 2000 M⁻¹ s⁻¹; kcat/Km [2]: < 510 M⁻¹ s⁻¹; kcat/Km [3]: 3.9e+07 M⁻¹ s⁻¹; kcat/Km [4]: 2.8e+06 M⁻¹ s⁻¹; kcat/Km [5]: 2.4e+07 M⁻¹ s⁻¹; kcat/Km [6]: < 71000 M⁻¹ s⁻¹; Km [7]: 23 µM; kcat [7]: < 0.047 s⁻¹; Km [8]: 690 µM; kcat [8]: < 0.35 s⁻¹; Km [9]: 31 µM; kcat [9]: 1200 s⁻¹; Km [10]: 260 µM; kcat [10]: 740 s⁻¹; Km [11]: 7.9 µM; kcat [11]: 190 s⁻¹; Km [12]: 14 µM; kcat [12]: < 1 s⁻¹

**Q.** How did the kcat/Km [13] turn out when “Beta-lactamase VIM-2 (Pseudomonas aeruginosa) (from UniProt Q9K2N0)” was run?
**A.** 86000 M⁻¹ s⁻¹

**Q.** What about the kcat/Km [14] of the same substance?
**A.** 1500 M⁻¹ s⁻¹

**Q.** And the Km [15]?
**A.** 46 µM

**Q.** And the kcat [15]?
**A.** 15 s⁻¹

**Q.** What about the Km [16] of the same substance?
**A.** 1400 µM

**Q.** And the kcat [16]?
**A.** 120 s⁻¹

**Q.** And the Km [17]?
**A.** 150 µM

**Q.** What about the kcat [17] of the same substance?
**A.** 0.23 s⁻¹
